# T1: GST-CDC-48.3 (N+D1) K285T (C. elegans, UniProt Q21222 1-441, K285T)
# T1 sequence (looked up): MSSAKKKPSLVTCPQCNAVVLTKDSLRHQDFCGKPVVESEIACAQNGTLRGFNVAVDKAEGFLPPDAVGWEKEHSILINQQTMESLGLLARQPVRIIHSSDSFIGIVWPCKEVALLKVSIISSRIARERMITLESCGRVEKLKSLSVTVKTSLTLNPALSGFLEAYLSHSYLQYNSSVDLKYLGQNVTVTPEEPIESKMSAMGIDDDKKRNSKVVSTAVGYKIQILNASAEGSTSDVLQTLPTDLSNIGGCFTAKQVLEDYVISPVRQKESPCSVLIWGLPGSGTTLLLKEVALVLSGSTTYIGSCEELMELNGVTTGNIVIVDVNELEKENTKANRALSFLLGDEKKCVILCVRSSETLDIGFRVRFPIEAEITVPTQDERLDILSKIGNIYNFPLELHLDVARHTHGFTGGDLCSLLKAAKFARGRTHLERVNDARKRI
# T2: GST-CDC-48.3 (N+D1), amino acids 1-441 (C. elegans, UniProt Q21222 1-441)
# T2 sequence (looked up): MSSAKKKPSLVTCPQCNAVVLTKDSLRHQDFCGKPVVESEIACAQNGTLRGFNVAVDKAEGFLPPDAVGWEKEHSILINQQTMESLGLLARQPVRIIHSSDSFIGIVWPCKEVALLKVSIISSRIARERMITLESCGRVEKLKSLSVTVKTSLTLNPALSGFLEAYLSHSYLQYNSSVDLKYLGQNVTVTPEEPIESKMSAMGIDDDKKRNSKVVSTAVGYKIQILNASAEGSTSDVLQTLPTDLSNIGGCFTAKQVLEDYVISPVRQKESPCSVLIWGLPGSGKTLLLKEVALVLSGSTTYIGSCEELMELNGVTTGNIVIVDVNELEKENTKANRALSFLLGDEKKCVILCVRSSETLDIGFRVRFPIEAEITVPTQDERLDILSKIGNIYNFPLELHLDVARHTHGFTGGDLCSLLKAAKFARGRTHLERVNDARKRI
# T3: GST-CDC-48.3 full-length (FL), amino acids 1-724 (C. elegans, UniProt Q21222 1-724)
# T3 sequence (looked up): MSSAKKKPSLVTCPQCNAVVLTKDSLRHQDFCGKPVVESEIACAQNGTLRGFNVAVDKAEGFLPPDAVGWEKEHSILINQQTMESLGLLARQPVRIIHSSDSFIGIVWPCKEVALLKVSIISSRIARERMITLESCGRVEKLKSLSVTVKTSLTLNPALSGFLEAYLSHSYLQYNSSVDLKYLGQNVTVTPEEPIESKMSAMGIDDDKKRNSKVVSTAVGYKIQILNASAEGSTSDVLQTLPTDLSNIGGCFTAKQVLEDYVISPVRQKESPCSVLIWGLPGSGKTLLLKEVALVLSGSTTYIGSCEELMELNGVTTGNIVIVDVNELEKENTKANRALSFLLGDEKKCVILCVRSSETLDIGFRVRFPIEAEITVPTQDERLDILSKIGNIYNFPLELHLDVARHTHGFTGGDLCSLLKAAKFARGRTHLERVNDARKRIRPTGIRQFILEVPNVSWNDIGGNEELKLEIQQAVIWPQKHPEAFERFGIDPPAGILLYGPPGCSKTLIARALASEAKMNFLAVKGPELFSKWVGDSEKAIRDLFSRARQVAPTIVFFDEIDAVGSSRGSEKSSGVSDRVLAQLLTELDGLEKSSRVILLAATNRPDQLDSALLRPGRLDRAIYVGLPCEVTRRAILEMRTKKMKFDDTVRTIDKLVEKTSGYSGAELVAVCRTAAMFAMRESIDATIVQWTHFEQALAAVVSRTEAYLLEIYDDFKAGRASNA
# B1: AIR-2 (C. elegans Aurora B kinase), recombinant, GST tag removed (enzyme, UniProt O01427 1-305, looked up)
# chain: MENKPPVINLPEKETVNTPQKGGKFTINDFEIGRPLGKGKFGSVYLARTKTGHFHVAIKVLFKSQLISGGVEHQLEREIEIQSHLNHPNIIKLYTYFWDAKKIYLVLEYAPGGEMYKQLTVSKRFSEPTAAKYMYEIADALSYCHRKNVIHRDIKPENLLIGSQGELKIGDFGWSVHAPSNKRQTMCGTMDYLPPEMVNGADHSDAVDLWAIGVLCYEFLVGKPPFEHEDQSKTYAAIKAARFTYPDSVKKGARDLIGRLLVVDPKARCTLEQVKEHYWIQGMMEAKIRAEKQQKIEKEASLRNH
# B2: GST-CDC-48.3 N (amino acids 1-225) (domain or fragment, C. elegans, UniProt Q21222 1-225, looked up)
# chain: MSSAKKKPSLVTCPQCNAVVLTKDSLRHQDFCGKPVVESEIACAQNGTLRGFNVAVDKAEGFLPPDAVGWEKEHSILINQQTMESLGLLARQPVRIIHSSDSFIGIVWPCKEVALLKVSIISSRIARERMITLESCGRVEKLKSLSVTVKTSLTLNPALSGFLEAYLSHSYLQYNSSVDLKYLGQNVTVTPEEPIESKMSAMGIDDDKKRNSKVVSTAVGYKIQI
# Legend:
# Assay in all cases: pull-down
# [1] = biological target: T1, GST-CDC-48.3 (N+D1) K285T
# [2] = biological target: T2, GST-CDC-48.3 (N+D1), amino acids 1-441
# [3] = biological target: T3, GST-CDC-48.3 full-length (FL), amino …
# [4] = biological target: B1
Binder,binding result [1],binding result [2],binding result [3],binding result [4]
B1,binds,binds,binds,
B2,,,,binds
